T1: THCA synthase (Cannabis sativa, UniProt Q8GTB6)
T1 construct: His-tag (C); made in house; host or cells: Pichia pastoris (PichiaPink, pPink-HC vector), secreted into the medium; cell-free T3 supernatant used
T1 sequence (Q8GTB6 29-545): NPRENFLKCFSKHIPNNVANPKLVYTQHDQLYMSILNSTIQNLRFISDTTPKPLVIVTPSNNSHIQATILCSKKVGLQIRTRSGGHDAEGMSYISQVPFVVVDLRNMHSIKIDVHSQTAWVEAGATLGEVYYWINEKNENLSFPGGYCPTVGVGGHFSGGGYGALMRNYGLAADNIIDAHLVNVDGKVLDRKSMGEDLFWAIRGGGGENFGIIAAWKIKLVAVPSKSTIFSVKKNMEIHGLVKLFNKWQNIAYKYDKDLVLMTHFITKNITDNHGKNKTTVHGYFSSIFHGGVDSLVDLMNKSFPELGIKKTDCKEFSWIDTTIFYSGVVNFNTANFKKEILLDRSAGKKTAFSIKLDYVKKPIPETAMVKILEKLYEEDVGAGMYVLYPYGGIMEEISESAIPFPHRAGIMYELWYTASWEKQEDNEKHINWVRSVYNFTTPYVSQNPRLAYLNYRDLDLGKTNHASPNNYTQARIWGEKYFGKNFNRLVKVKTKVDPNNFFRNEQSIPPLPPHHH

B1: Pme THC(2) #42: cell free supernatant with THCA synthase from a pPink yeast colony transformed with Pme I linearized THCA synthase plasmid (protein, UniProt Q8GTB6 29-545, looked up)
Tetrahydrocannabinolic acid …: T1 sequence (Q8GTB6 29-545)
modifications: yeast culture supernatant
notes: cell free supernatant with THCA synthase from a pPink yeast colony transformed with Pme I linearized THCA synthase plasmid
B2: Pme THC(3) #19: cell free supernatant with THCA synthase from a pPink yeast colony transformed with Pme I linearized THCA synthase plasmid (protein, UniProt Q8GTB6 29-545, looked up)
Tetrahydrocannabinolic acid …: T1 sequence (Q8GTB6 29-545)
modifications: yeast culture supernatant
notes: as for B1
B3: Pme THC(2) #51: cell free supernatant with THCA synthase from a pPink yeast colony transformed with Pme I linearized THCA synthase plasmid (protein, UniProt Q8GTB6 29-545, looked up)
Tetrahydrocannabinolic acid …: T1 sequence (Q8GTB6 29-545)
modifications: yeast culture supernatant
notes: as for B1
B4: Pme THC(2) #46: cell free supernatant with THCA synthase from a pPink yeast colony transformed with Pme I linearized THCA synthase plasmid (protein, UniProt Q8GTB6 29-545, looked up)
Tetrahydrocannabinolic acid …: T1 sequence (Q8GTB6 29-545)
modifications: yeast culture supernatant
notes: as for B1
B5: Spe THC #4: cell free supernatant with THCA synthase from a pPink yeast colony transformed with Spe I linearized THCA synthase plasmid (protein, UniProt Q8GTB6 29-545, looked up)
Tetrahydrocannabinolic acid …: T1 sequence (Q8GTB6 29-545)
modifications: yeast culture supernatant
notes: cell free supernatant with THCA synthase from a pPink yeast colony transformed with Spe I linearized THCA synthase plasmid
B6: Spe THC #22: cell free supernatant with THCA synthase from a pPink yeast colony transformed with Spe I linearized THCA synthase plasmid (protein, UniProt Q8GTB6 29-545, looked up)
Tetrahydrocannabinolic acid …: T1 sequence (Q8GTB6 29-545)
modifications: yeast culture supernatant
notes: as for B5
B7: Pme THC(3) #1: cell free supernatant with THCA synthase from a pPink yeast colony transformed with Pme I linearized THCA synthase plasmid (protein, UniProt Q8GTB6 29-545, looked up)
Tetrahydrocannabinolic acid …: T1 sequence (Q8GTB6 29-545)
modifications: yeast culture supernatant
notes: as for B1
B8: Pme THC(3) #17: cell free supernatant with THCA synthase from a pPink yeast colony transformed with Pme I linearized THCA synthase plasmid (protein, UniProt Q8GTB6 29-545, looked up)
Tetrahydrocannabinolic acid …: T1 sequence (Q8GTB6 29-545)
modifications: yeast culture supernatant
notes: as for B1
B9: Spe THC #3: cell free supernatant with THCA synthase from a pPink yeast colony transformed with Spe I linearized THCA synthase plasmid (protein, UniProt Q8GTB6 29-545, looked up)
Tetrahydrocannabinolic acid …: T1 sequence (Q8GTB6 29-545)
modifications: yeast culture supernatant
notes: as for B5
B10: Pme THC(3) #20: cell free supernatant with THCA synthase from a pPink yeast colony transformed with Pme I linearized THCA synthase plasmid (protein, UniProt Q8GTB6 29-545, looked up)
Tetrahydrocannabinolic acid …: T1 sequence (Q8GTB6 29-545)
modifications: yeast culture supernatant
notes: as for B1
B11: Pme THC(3) #11: cell free supernatant with THCA synthase from a pPink yeast colony transformed with Pme I linearized THCA synthase plasmid (protein, UniProt Q8GTB6 29-545, looked up)
Tetrahydrocannabinolic acid …: T1 sequence (Q8GTB6 29-545)
modifications: yeast culture supernatant
notes: as for B1
B12: Spe THC #23: cell free supernatant with THCA synthase from a pPink yeast colony transformed with Spe I linearized THCA synthase plasmid (protein, UniProt Q8GTB6 29-545, looked up)
Tetrahydrocannabinolic acid …: T1 sequence (Q8GTB6 29-545)
modifications: yeast culture supernatant
notes: as for B5

biological target: T1, THCA synthase; test: catalytic activity of THCA synthase from independent colonies of transformed pPink yeast cells (conversion of CBGA to THCA); assay type: biochemical; details: 25 μl cell free supernatant of T3 sample, 100 mM citrate buffer, 10% DMSO, final pH 5.0, 2 hours at 30° C.
Experimental: After 24 hours a 100 μL of the cell sample was removed to which was added 100 μL of 40% methanol to induce enzyme production. This methanolic sample was then centrifuged at 12,000 rpm for 5 minutes and the supernatant and pellet were saved as the T1 sample. A second culture sample was obtained after a 48 hour incubation period and treated with methanol as described above. After centrifugation, the supernatant and pellet are saved as the T2 sample. At 72 hours the entire incubation mixture is treated with an appropriate volume of 40% methanol. The supernatant and pellet obtained from methanolic treatment of the culture after a 72 hour incubation period is labeled as T3. The T3 supernatant was spun through an Amicon 30 kD protein filter and analyzed for protein using an SDS-PAGE gel.
The catalytic activity of THCA synthase was measured by incubating 25 μl of the cell free supernatant from a T3 sample with 25 μl of a 1 mg/ml CBGA stock in 200 μl of a 100 mM citrate buffer at pH 4.8 having 10% DMSO for 2 hours at 30° C. The final concentration of CBGA in the reaction mixture was 0.1 mg/ml and the final pH is 5.0. Table 4 illustrates the data related to the catalytic activity of THCA synthase obtained from independent colonies of transformed pPink yeast cells, namely. pPink yeast cells that were transformed using linearized THCA synthase plasmids. Culture samples that converted greater than 20% of the substrate CBGA to product THCA were selected for scale up.

Molecule | % Conversion of CBGA to THCA in reaction containing 0.1 mg/ml CBGA. [%]
B1 | 27.6
B2 | 36.8
B3 | 26.8
B4 | 40.7
B5 | 28.7
B6 | 20.6
B7 | 55.2
B8 | 69.9
B9 | 20.6
B10 | 34.3
B11 | 35.0
B12 | 18.7

Source: US10472652B2, “Chemical engineering processes and apparatus for the synthesis of compounds” (TEEWINOT T[…], priority 2013, dated 2019)
